T1: CD70 (on CD70+ 786-O target cells) (UniProt P32970)
T1 sequence (looked up): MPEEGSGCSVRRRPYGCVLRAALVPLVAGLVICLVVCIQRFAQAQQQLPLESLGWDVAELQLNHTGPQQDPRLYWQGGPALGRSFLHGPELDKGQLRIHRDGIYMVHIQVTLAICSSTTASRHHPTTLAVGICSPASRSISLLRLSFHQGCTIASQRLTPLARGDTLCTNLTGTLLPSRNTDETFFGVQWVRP


Each binder was assayed against T1, CD70 (on CD70+ 786-O target cells) (assay: cell-based or functional assay).

half maximal lysis (EC50), ADCC 51Cr release assay	maximal specific lysis	Binder
9 ng/mL	42.5 percent	control h1F6 antibody (humanized IgG1 anti-CD70 monoclonal antibody, from CHO DG44 cells cultured without fucose analog; core fucosylated) (antibody, INN chains, looked up, V domains shown) VH: QVQLVQSGAEVKKPGASVKVSCKASGYTFTNYGMNWVRQAPGQGLKWMGWINTYTGEPTYADAFKGRVTMTRDTSISTAYMELSRLRSDDTAVYYCARDYGDYGMDYWGQGTTVTVSS VL: DIVMTQSPDSLAVSLGERATINCRASKSVSTSGYSFMHWYQQKPGQPPKLLIYLASNLESGVPDRFSGSGSGTDFTLTISSLQAEDVAVYYCQHSREVPWTFGQGTKVEIK
0.5 ng/mL	53.3 percent	h1F6 antibody from host cells cultured in the presence of 50 µM alkynyl fucose peracetate (non-core fucosylated anti-CD70 antibody) (antibody, INN chains, looked up, V domains shown, non-core fucosylated (alkynyl fucose)) VH: QVQLVQSGAEVKKPGASVKVSCKASGYTFTNYGMNWVRQAPGQGLKWMGWINTYTGEPTYADAFKGRVTMTRDTSISTAYMELSRLRSDDTAVYYCARDYGDYGMDYWGQGTTVTVSS VL: DIVMTQSPDSLAVSLGERATINCRASKSVSTSGYSFMHWYQQKPGQPPKLLIYLASNLESGVPDRFSGSGSGTDFTLTISSLQAEDVAVYYCQHSREVPWTFGQGTKVEIK
0.3 ng/mL	54.8 percent	h1F6 antibody from host cells cultured in the presence of 100 µM alkynyl fucose peracetate (antibody, INN chains, looked up, IgG1, V domains shown, produced with 100 µM alkynyl fucose) VH: QVQLVQSGAEVKKPGASVKVSCKASGYTFTNYGMNWVRQAPGQGLKWMGWINTYTGEPTYADAFKGRVTMTRDTSISTAYMELSRLRSDDTAVYYCARDYGDYGMDYWGQGTTVTVSS VL: DIVMTQSPDSLAVSLGERATINCRASKSVSTSGYSFMHWYQQKPGQPPKLLIYLASNLESGVPDRFSGSGSGTDFTLTISSLQAEDVAVYYCQHSREVPWTFGQGTKVEIK
